± gives the standard deviation of the averaged measurements.
What follows are sequences tested on ATP (assay: switch fluorescence ratio, 500 uM ATP over buffer (Cy3 cluster intensity, sum of 5 cycles each) (fold (ratio)); higher = stronger signal-on switching upon ATP binding; sequences stand for … in TCGTCGGCAGCGTCAGATGTGTATAAGAGACAGTTTTTTTTTTTTTTTTTTTTTTTTT…TC). Conditions: aptamer strand: ATP DNA aptamer (quencher-CACCTGGGGGAGTATTGCGGAGGAAGG + anchor), 100 nM annealed; ATP concentration: 500 uM.
Outline: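 Exposure to 500 uM ATP lasted 15 min at 22 °C before imaging, and a selection-buffer image was taken beforehand, for Cy3-labelled switching-strand clusters on a modified Illumina MiSeq flow-cell annealed to 100 nM quencher-labelled ATP aptamer. Five buffer/ATP cycles were run with NaOH stripping and re-annealing between them. The fluorescence ratio per cluster is summed target-cycle over summed buffer-cycle Cy3 intensity, averaged per switch-domain sequence. Clusters outside 100-1000 RFU were excluded.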

Sequence	switch fluorescence ratio
GGTGTCTGT	0.9738 ± 0.0044
TCCGGCTATT	1.108 ± 0.0087
TATCCTTTTT	1.03 ± 0.057
TTAGCGGTGT	1.07 ± 0.14
TCAGGATGTT	0.987 ± 0.026
ATACTTTATT	1.09 ± 0.034
TATAATCCAG	0.984 ± 0.024
TTTTCCCCGT	1.38 ± 0.56
TTTTCATGGG	0.995 ± 0.013
TGCTGGAAGT	0.977 ± 0.032
ACCTTGGGGA	1.25 ± 0.4
ATTAGCACGT	1.023 ± 0.0031
GGTGACTGAG	1.012 ± 0.009
TGATGCTGTA	0.977 ± 0.063
TAGTAATATT	1.11 ± 0.12
CTCACCCGGA	1.18 ± 0.012
TTTCAGTGAC	1.04 ± 0.079
ATGGGCAGTC	1.21 ± 0.41
AGAAGGGGAC	1.02 ± 0.026
CGGGGTTGCC	0.955 ± 0.022
TTTTGGAGCG	1.05 ± 0.052
CCATGGTTTT	1.0024 ± 0.00092
TATAACACTT	1.05 ± 0.024
TGGGTTCGGA	0.985 ± 0.023
TATAATAGAA	0.983 ± 0.027

Sequence	switch fluorescence ratio
CGGGCGCTGA	0.9837 ± 0.004
ACGTGCGGAG	1.01 ± 0.016
ACAAGGGATG	0.972 ± 0.041
TTTGCAGAAC	1.2 ± 0.15
AGGAAGGGGG	0.992 ± 0.034
AAGGGGTGGT	0.989 ± 0.032
TCTTTTGGAG	0.996 ± 0.045
AAAGGTGGGT	1.51 ± 0.86
GACGGGGAGG	0.9995 ± 0.0092
GCGGGTATTG	0.964 ± 0.038
GGTGCCTGAG	1.06 ± 0.03
ACAGTGGCAT	0.997 ± 0.034
AATTCTAATA	0.9997 ± 0.0033
GGAGGACTCG	0.982 ± 0.05
CAGGGCGGA	0.993 ± 0.015
ATTCAACGGT	1.02 ± 0.0048
TTAGAGGGTC	0.9952 ± 0.0013
GCTGTCATGA	0.9853 ± 0.0074
GGTCTTCATT	0.963 ± 0.011
GAATTTGATT	1.02 ± 0.025
TGGGGGTCGA	1.01 ± 0.053
TGTGATGCCG	0.976 ± 0.015
GATTAACCTA	1.013 ± 0.003
GGTTTTGCAC	1.03 ± 0.038
AAACCAGGTA	1.18 ± 0.048

Sequence	switch fluorescence ratio
GAGTGGTACC	1.01 ± 0.025
TACGGGGCGG	1.36 ± 0.64
TCAGTAGTGA	1.06 ± 0.051
GCTGCTAGTG	0.97 ± 0.017
TTCCGATTCG	1.09 ± 0.035
GACTGTCGAG	0.991 ± 0.027
GTGGTATCAT	0.978 ± 0.03
GCTATAAGTG	0.969 ± 0.027
CCAGGACTGC	0.972 ± 0.036
TGAACATTTT	1.07 ± 0.079
CCGCCATTGG	1.62 ± 0.069
ATCGGTGTGT	0.989 ± 0.045
GGTCGTAGAT	1.01 ± 0.036
GAGGGTGCGG	1.01 ± 0.027
TTCACTTGGA	1.03 ± 0.033
ACCGGTGTTC	1.021 ± 0.0069
AGGCGGGGGC	1.03 ± 0.068
ACAATTGGTC	1.02 ± 0.034
GAATATTCGC	0.9958 ± 0.0032
GCTCTTTGAC	0.987 ± 0.029
CGGTGTAGCC	1.02 ± 0.014
AAAGGGTCAT	0.9918 ± 0.0086
TGGCGGGGAC	1.1 ± 0.17
TGAGACTGGT	0.999 ± 0.023
CAAGGGATTG	0.992 ± 0.0058

Sequence	switch fluorescence ratio
ATTTTATTCT	1.003 ± 0.0076
TGATTGGTTC	0.9788 ± 0.0029
GGTCGGCGGG	1.03 ± 0.1
CAGGGGGGGG	1.01 ± 0.031
TATTATGCGA	1.04 ± 0.022
GGTGAGGCGC	0.985 ± 0.066
GTTGTTTTAA	1.05 ± 0.011
ACGAGTGGGC	1 ± 0.063
AGGGGAGGGG	1.02 ± 0.042
GAGGAGTAGG	1.08 ± 0.036
GATTTGGACG	1.01 ± 0.028
AATTAGTACG	0.981 ± 0.052
GGTTTACGGT	1.007 ± 0.0018
GGACTCTAGG	0.979 ± 0.027
GGCGTCCTGG	1.03 ± 0.029
GTTAAGGATT	1.03 ± 0.085
TGTACTATGG	1.01 ± 0.04
TTCGCCAGAT	1.04 ± 0.035
AAGCTTTTGT	0.9849 ± 0.0084
TTGCTCGCTC	1.16 ± 0.084
TGTTCTAGG	1.01 ± 0.015
AATAAACAAA	0.978 ± 0.013
TAAGGCTTTG	0.9987 ± 0.0068
GTTTCTTTGG	1.06 ± 0.13
ATTTTATTAT	1.01 ± 0.024

From the supplement of paper PMC10126150
